Experimental data from article PMC4536007, “Modulation of the Activity of Mycobacterium tuberculosis LipY by Its PE Domain” (PLoS ONE, 2015).

Biological target: the molecule itself
Assay: SEC; […] (20 mM HEPES pH 7, 100 mM NaCl, 10% glycerol); […]

B1: PE domain of LipY (domain or fragment)
chain: MVSYVVALPEVMSAAATDVASIGSVVATASQGVAGATTTVLAAAEDEVSAAIAALFSGHGQDYQALSAQLAVFHERFVQALTGAAKGYAAAELANASLLQSEFASGIGNGFATIHQEIQRAPTALAAGFTQVPPFAAAQAGIFTGTPSG
notes: LipY, Mycobacterium tuberculosis, residues 1-149 (PE domain with the linker up to the cleavage site); not shown: His tag, C-terminal, kept
B1: binds.

B2: LipY (enzyme)
chain: MVSYVVALPEVMSAAATDVASIGSVVATASQGVAGATTTVLAAAEDEVSAAIAALFSGHGQDYQALSAQLAVFHERFVQALTGAAKGYAAAELANASLLQSEFASGIGNGFATIHQEIQRAPTALAAGFTQVPPFAAAQAGIFTGTPSGAAGFDIASLWPVKPLLSLSALETHFAIPNNPLLALIASDIPPLSWFLGNSPPPLLNSLLGQTVQYTTYDGMSVVQITPAHPTGEYVVAIHGGAFILPPSIFHWLNYSVTAYQTGATVQVPIYPLVQEGGTAGTVVPAMAGLISTQIAQHGVSNVSVVGDSAGGNLALAAAQYMVSQGNPVPSSMVLLSPWLDVGTWQISQAWAGNLAVNDPLVSPLYGSLNGLPPTYVYSGSLDPLAQQAVVLEHTAVVQGAPFSFVLAPWQIHDWILLTPWGLLSWPQINQQLGIAA
notes: LipY, PE protein with a C-terminal triglyceride lipase domain, Mycobacterium tuberculosis; 45 kDa; full length (LipYΔPE ends at residue 437); also called full length LipY; not shown: His tag, C-terminal, kept
B2: binds.
